This experiment deals with KSHV glycoprotein H/glycoprotein L (gH/gL) (Kaposi's sarcoma-associated herpesvirus (KSHV)) (UniProt F5HAK9).
Sequence of UniProt F5HAK9 (F5HAK9 whole entry, looked up): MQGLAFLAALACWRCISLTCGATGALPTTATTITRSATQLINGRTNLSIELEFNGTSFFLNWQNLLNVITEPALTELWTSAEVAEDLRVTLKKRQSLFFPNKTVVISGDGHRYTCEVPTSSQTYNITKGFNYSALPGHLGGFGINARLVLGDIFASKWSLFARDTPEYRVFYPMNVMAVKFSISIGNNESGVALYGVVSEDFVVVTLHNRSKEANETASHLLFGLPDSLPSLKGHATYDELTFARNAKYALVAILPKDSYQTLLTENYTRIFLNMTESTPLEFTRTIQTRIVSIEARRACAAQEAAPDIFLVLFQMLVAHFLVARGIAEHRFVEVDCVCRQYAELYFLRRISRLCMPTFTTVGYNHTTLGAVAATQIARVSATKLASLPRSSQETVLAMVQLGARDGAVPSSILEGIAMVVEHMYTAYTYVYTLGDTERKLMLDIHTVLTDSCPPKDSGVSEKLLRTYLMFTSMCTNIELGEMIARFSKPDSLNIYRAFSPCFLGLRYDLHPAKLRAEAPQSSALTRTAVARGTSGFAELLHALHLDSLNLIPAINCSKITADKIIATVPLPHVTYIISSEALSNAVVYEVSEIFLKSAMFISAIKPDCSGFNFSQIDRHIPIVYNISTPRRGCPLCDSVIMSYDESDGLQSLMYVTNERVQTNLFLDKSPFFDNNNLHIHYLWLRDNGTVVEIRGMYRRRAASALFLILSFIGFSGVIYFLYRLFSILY

As for “Soluble EphA4-Fc (from UniProt P54764 20-547) (Fc fusion)”, the virus-free cell-cell fusion (luciferase): CHO-K1 cells with EBV gB and KSHV gH/gL overlaid with HEK293T cells overexpressing membrane EphA4, compared with cells overexpressing EphA2 (% more fusion than with EphA2) worked out at 33.

Source of the values: PMC6381284.
